Among the data in the supplement of paper PMC10567573 are protein stability index values, retold here.

B1: KCNK9 (parent)
chain: CFITLTTIGFGDYVALQTKGALQK
B2: EPB41L3 (parent)
chain: SMQCKVILLDGSEYTCDVEKRSRG
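Also: lentivirally expressed fusions sorted by FACS into six bins by GFP to DsRed ratio, PSI derived from sequencing read proportions per bin multiplied by bin number.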

The variants in the first data set derive from B1. As to the kind of experiment: protein stability index of a GFP-peptide fusion (GPS, HEK-293T) (PSI 1-6); higher = more stable. Conditions: c terminus: a fixed tail appended.
For the variant CFITLTTIGFGDYVALQTKGALCK, the protein stability index was 2.6.

In the case of CFITLTTIGFGDYVALQTKGALAK, the protein stability index was 3.76.

For the variant CFITLTTIGFGDYVALQTKGALFK, the protein stability index was 2.87.

As to CFITLTTIGFGDYVALQTKGALDK, the protein stability index came out at 2.98.

As to CFITLTTIGFGDYVALQTKGALPK, the protein stability index is 2.14.

In the case of CFITLTTIGFGDYVALQTKGALGK, the protein stability index is 3.46.

With CFITLTTIGFGDYVALQTKGALIK, the protein stability index came out at 3.28.

CFITLTTIGFGDYVALQTKGALLK: the protein stability index turned out to be 3.52.

With CFITLTTIGFGDYVALQTKGALWK, the protein stability index turned out to be 2.73.

For CFITLTTIGFGDYVALQTKGALYK, the protein stability index amounted to 2.42.

The next data set covers variants of B2. The data set is described as above. The settings on record: c terminus: a fixed tail appended.
For SMQCEVILLDGSEYTCDVEKRSRG, the protein stability index stood at 3.48.

Regarding SMQCLVILLDGSEYTCDVEKRSRG, the protein stability index stood at 1.31.

On to SMQCGVILLDGSEYTCDVEKRSRG, for which the protein stability index was 3.57.

As to SMQCAVILLDGSEYTCDVEKRSRG, the protein stability index is 3.27.

On to SMQCCVILLDGSEYTCDVEKRSRG, for which the protein stability index is 1.77.

As for SMQCHVILLDGSEYTCDVEKRSRG, the protein stability index is 2.39.

For the variant SMQCDVILLDGSEYTCDVEKRSRG, the protein stability index was found to be 3.96.

As to SMQCMVILLDGSEYTCDVEKRSRG, the protein stability index worked out at 1.43.

As to SMQCFVILLDGSEYTCDVEKRSRG, the protein stability index amounted to 1.58.

Consider SNQCKVILLDGSEYTCDVEKRSRG, for which the protein stability index came out at 4.06.

As to SIQCKVILLDGSEYTCDVEKRSRG, the protein stability index came out at 2.12.

For the variant SYQCKVILLDGSEYTCDVEKRSRG, the protein stability index is 1.5.

For the variant SAQCKVILLDGSEYTCDVEKRSRG, the protein stability index came to 3.24.

As to SEQCKVILLDGSEYTCDVEKRSRG, the protein stability index was found to be 4.4.

As for SFQCKVILLDGSEYTCDVEKRSRG, the protein stability index was 2.55.

Consider SCQCKVILLDGSEYTCDVEKRSRG, for which the protein stability index was 2.08.

For SDQCKVILLDGSEYTCDVEKRSRG, the protein stability index was determined as 3.38.

On to SHQCKVILLDGSEYTCDVEKRSRG, for which the protein stability index was determined as 2.9.

Regarding SGQCKVILLDGSEYTCDVEKRSRG, the protein stability index was 3.36.

In the case of SRQCKVILLDGSEYTCDVEKRSRG, the protein stability index amounted to 2.72.

On to SKQCKVILLDGSEYTCDVEKRSRG, for which the protein stability index is 3.24.

Consider STQCKVILLDGSEYTCDVEKRSRG, for which the protein stability index was found to be 3.53.

For the variant SQQCKVILLDGSEYTCDVEKRSRG, the protein stability index is 3.64.

Regarding SSQCKVILLDGSEYTCDVEKRSRG, the protein stability index was determined as 3.2.

For SPQCKVILLDGSEYTCDVEKRSRG, the protein stability index stood at 3.42.

On to SLQCKVILLDGSEYTCDVEKRSRG, for which the protein stability index was 2.55.

For SVQCKVILLDGSEYTCDVEKRSRG, the protein stability index was found to be 2.6.

In the case of SMQWKVILLDGSEYTCDVEKRSRG, the protein stability index is 2.32.

For SMQNKVILLDGSEYTCDVEKRSRG, the protein stability index stood at 3.07.

As for SMQFKVILLDGSEYTCDVEKRSRG, the protein stability index worked out at 2.03.

With SMQEKVILLDGSEYTCDVEKRSRG, the protein stability index was found to be 4.48.

Consider SMQHKVILLDGSEYTCDVEKRSRG, for which the protein stability index worked out at 3.46.

On to SMQMKVILLDGSEYTCDVEKRSRG, for which the protein stability index amounted to 2.6.

As to SMQSKVILLDGSEYTCDVEKRSRG, the protein stability index worked out at 3.78.

With SMQKKVILLDGSEYTCDVEKRSRG, the protein stability index is 4.37.

Take SMQIKVILLDGSEYTCDVEKRSRG: the protein stability index is 2.41.

Take SMQGKVILLDGSEYTCDVEKRSRG: the protein stability index was determined as 4.33.

SMQYKVILLDGSEYTCDVEKRSRG: the protein stability index was 2.29.

Consider SMQRKVILLDGSEYTCDVEKRSRG, for which the protein stability index stood at 4.51.

SMQAKVILLDGSEYTCDVEKRSRG: the protein stability index worked out at 3.93.

SMQVKVILLDGSEYTCDVEKRSRG: the protein stability index came out at 3.17.

For SMQDKVILLDGSEYTCDVEKRSRG, the protein stability index was 4.23.

With SMQPKVILLDGSEYTCDVEKRSRG, the protein stability index was 3.94.

SMQLKVILLDGSEYTCDVEKRSRG: the protein stability index is 2.04.

On to SMQQKVILLDGSEYTCDVEKRSRG, for which the protein stability index was 4.28.

Turning to SMQTKVILLDGSEYTCDVEKRSRG, the protein stability index is 3.61.

As to TMQCKVILLDGSEYTCDVEKRSRG, the protein stability index was 1.92.

Consider WMQCKVILLDGSEYTCDVEKRSRG, for which the protein stability index is 2.

HMQCKVILLDGSEYTCDVEKRSRG: the protein stability index was determined as 2.19.

With QMQCKVILLDGSEYTCDVEKRSRG, the protein stability index was 2.64.

Take NMQCKVILLDGSEYTCDVEKRSRG: the protein stability index turned out to be 2.34.

DMQCKVILLDGSEYTCDVEKRSRG: the protein stability index amounted to 3.27.

For the variant VMQCKVILLDGSEYTCDVEKRSRG, the protein stability index was determined as 1.78.

Take CMQCKVILLDGSEYTCDVEKRSRG: the protein stability index came to 1.74.

On to MMQCKVILLDGSEYTCDVEKRSRG, for which the protein stability index worked out at 3.46.

Turning to KMQCKVILLDGSEYTCDVEKRSRG, the protein stability index came to 1.93.

Consider EMQCKVILLDGSEYTCDVEKRSRG, for which the protein stability index was found to be 3.32.

As to GMQCKVILLDGSEYTCDVEKRSRG, the protein stability index worked out at 2.37.

YMQCKVILLDGSEYTCDVEKRSRG: the protein stability index is 1.37.

With LMQCKVILLDGSEYTCDVEKRSRG, the protein stability index was found to be 2.2.

For the variant AMQCKVILLDGSEYTCDVEKRSRG, the protein stability index is 2.86.

On to RMQCKVILLDGSEYTCDVEKRSRG, for which the protein stability index was determined as 1.95.

Regarding IMQCKVILLDGSEYTCDVEKRSRG, the protein stability index came to 1.93.

With PMQCKVILLDGSEYTCDVEKRSRG, the protein stability index was determined as 3.04.

With FMQCKVILLDGSEYTCDVEKRSRG, the protein stability index amounted to 2.

Regarding SMGCKVILLDGSEYTCDVEKRSRG, the protein stability index came out at 2.38.

In the case of SMACKVILLDGSEYTCDVEKRSRG, the protein stability index amounted to 2.9.

With SMRCKVILLDGSEYTCDVEKRSRG, the protein stability index stood at 2.37.

As to SMKCKVILLDGSEYTCDVEKRSRG, the protein stability index is 2.68.

Regarding SMNCKVILLDGSEYTCDVEKRSRG, the protein stability index came out at 2.76.

Turning to SMFCKVILLDGSEYTCDVEKRSRG, the protein stability index stood at 3.2.

On to SMLCKVILLDGSEYTCDVEKRSRG, for which the protein stability index was determined as 1.49.

As for SMHCKVILLDGSEYTCDVEKRSRG, the protein stability index is 2.83.

With SMDCKVILLDGSEYTCDVEKRSRG, the protein stability index is 3.75.

As to SMWCKVILLDGSEYTCDVEKRSRG, the protein stability index is 1.19.

For the variant SMCCKVILLDGSEYTCDVEKRSRG, the protein stability index stood at 2.16.

As for SMYCKVILLDGSEYTCDVEKRSRG, the protein stability index was 2.07.

For SMTCKVILLDGSEYTCDVEKRSRG, the protein stability index is 2.48.

As to SMSCKVILLDGSEYTCDVEKRSRG, the protein stability index came to 2.98.

For SMMCKVILLDGSEYTCDVEKRSRG, the protein stability index was determined as 3.35.

With SMPCKVILLDGSEYTCDVEKRSRG, the protein stability index came out at 3.63.

For SMICKVILLDGSEYTCDVEKRSRG, the protein stability index was determined as 2.44.

On to SMECKVILLDGSEYTCDVEKRSRG, for which the protein stability index was found to be 3.81.

As to SMVCKVILLDGSEYTCDVEKRSRG, the protein stability index worked out at 2.63.
